Measured values: patent US20130236459A1 (MERRIMACK PHARMACEUTICALS, published 2013)
Like-named read-outs stand apart in the source and are kept apart here.

How the values were obtained:
rat IGF-1R-His = target: T1, rat IGF-1R-His (rat, UniProt P24062 31-936, limits assumed); test: ELISA, species specific IGF-1R-His coated plate
T1 construct: not shown: His tag, not further described
Protocol: (§1) 96-well Reacti-bind® plates (Pierce, Fisher cat. No. PI-I5041) are coated with 50 ul of species specific ErbB3-His or IGF-1R-His (R&D Systems, cat. No. 348-RB and 305-GR, respectively) at 2 ug/ml in PBS and incubated overnight at 4° C. The next day plates are washed with PBS+0.05% Tween-20 (PBS-T) and blocked for 1 hr. at room temperature with 100 ul of Protein-Free Blocking Buffer (Pierce). Plates are washed with PBS-T and 50 ul of each PBA is added in duplicate. Concentrations start at 500 nM (in PBS-T) and included ten additional two-fold dilutions and one blank (PBS-T only). Plates are incubated at room temperature for two hours and then washed with PBS-T. 50 ul of anti-Fc-HRP (Jackson Labs) is added at 1:40,000 in PBS-T, and plates are incubated in the dark for 1 hr. at room temperature. Plates are again washed with PBS-T and 100 ul of TMB substrate (Thermo Scientific, TMB and peroxide solution mixed 1:1) is added. The plates are incubated for 5-15 minutes at room temperature until a blue color develops, and the reaction is stopped with 100 ul of STOP solution (Cell Signaling Technology). The absorbance is read at 450 nm on a PerkinElmer Envision plate reader, and binding curves are generated using GraphPad Prism.

mouse IGF-1R-His = target: T2, mouse IGF-1R-His (mouse, UniProt Q60751 31-936, limits assumed); test: ELISA, species specific IGF-1R-His coated plate
T2 construct: not shown: His tag, not further described
Protocol: as §1

[1] = target: T3, IGF-1R (receptor for insulin-like growth factor 1), endogenous on human tumor cell lines (human, UniProt P08069 31-1367); test: cell-based or functional assay
mouse ErbB3-His = target: T4, mouse ErbB3-His (mouse, UniProt Q61526 20-641, limits assumed); test: ELISA, species specific ErbB3-His coated plate
T4 construct: not shown: His tag, not further described for this species form
Protocol: as §1

rat ErbB3-His = target: T5, rat ErbB3-His (rat, UniProt Q62799 20-641, limits assumed); test: ELISA, species specific ErbB3-His coated plate
T5 construct: not shown: His tag, not further described for this species form
Protocol: as §1

[2] = target: T6, ErbB3 (HER3), endogenous on human tumor cell lines (human, UniProt P21860 20-1342); test: cell-based or functional assay
[3] = target: T3, IGF-1R (receptor for insulin-like …); test: cell-based or functional assay; remark: listed apart in the source
[4] = target: T6, ErbB3 (HER3), endogenous on human tumor …; test: cell-based or functional assay; remark: listed apart in the source
[5] = target: T3, IGF-1R (receptor for insulin-like …); test: cell-based or functional assay; remark: listed apart in the source
[6] = target: T6, ErbB3 (HER3), endogenous on human tumor …; test: cell-based or functional assay; remark: listed apart in the source
[7] = target: T3, IGF-1R (receptor for insulin-like …); test: cell-based or functional assay; remark: listed apart in the source

T6 sequence (P21860 20-1342 limits assumed): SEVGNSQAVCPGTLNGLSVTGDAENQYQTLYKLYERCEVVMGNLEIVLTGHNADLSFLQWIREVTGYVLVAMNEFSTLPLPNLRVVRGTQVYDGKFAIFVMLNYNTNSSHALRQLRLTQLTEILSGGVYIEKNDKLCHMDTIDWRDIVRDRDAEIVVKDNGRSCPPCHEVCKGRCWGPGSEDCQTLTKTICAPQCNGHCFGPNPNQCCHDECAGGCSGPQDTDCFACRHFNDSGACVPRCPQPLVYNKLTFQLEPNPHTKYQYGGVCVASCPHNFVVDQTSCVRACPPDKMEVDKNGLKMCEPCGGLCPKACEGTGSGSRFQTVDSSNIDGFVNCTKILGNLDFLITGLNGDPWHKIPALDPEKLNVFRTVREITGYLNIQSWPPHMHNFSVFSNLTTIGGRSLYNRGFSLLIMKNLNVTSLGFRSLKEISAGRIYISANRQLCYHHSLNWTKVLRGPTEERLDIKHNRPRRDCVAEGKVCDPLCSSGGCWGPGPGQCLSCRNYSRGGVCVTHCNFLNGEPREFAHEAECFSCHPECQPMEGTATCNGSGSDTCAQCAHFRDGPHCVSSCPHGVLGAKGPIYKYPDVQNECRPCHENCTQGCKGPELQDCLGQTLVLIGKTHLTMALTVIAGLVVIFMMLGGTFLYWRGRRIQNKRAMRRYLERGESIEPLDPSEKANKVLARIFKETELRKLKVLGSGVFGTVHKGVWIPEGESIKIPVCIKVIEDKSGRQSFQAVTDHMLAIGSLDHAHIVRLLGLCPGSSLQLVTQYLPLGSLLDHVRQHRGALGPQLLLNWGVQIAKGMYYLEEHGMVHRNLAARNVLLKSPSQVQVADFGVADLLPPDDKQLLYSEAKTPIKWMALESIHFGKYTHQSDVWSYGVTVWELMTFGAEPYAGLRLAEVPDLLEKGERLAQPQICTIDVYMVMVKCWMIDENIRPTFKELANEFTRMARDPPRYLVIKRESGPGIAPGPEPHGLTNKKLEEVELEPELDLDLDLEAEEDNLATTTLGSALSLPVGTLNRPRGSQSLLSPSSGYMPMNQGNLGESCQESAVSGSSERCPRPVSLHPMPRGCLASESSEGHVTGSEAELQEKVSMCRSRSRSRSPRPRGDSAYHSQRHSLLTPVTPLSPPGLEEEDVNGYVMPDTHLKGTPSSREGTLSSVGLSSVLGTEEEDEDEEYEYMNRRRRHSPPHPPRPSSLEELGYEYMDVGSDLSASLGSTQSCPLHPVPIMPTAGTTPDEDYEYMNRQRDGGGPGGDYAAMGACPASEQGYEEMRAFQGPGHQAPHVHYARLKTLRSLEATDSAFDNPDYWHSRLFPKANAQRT
T3 sequence (P08069 31-1367): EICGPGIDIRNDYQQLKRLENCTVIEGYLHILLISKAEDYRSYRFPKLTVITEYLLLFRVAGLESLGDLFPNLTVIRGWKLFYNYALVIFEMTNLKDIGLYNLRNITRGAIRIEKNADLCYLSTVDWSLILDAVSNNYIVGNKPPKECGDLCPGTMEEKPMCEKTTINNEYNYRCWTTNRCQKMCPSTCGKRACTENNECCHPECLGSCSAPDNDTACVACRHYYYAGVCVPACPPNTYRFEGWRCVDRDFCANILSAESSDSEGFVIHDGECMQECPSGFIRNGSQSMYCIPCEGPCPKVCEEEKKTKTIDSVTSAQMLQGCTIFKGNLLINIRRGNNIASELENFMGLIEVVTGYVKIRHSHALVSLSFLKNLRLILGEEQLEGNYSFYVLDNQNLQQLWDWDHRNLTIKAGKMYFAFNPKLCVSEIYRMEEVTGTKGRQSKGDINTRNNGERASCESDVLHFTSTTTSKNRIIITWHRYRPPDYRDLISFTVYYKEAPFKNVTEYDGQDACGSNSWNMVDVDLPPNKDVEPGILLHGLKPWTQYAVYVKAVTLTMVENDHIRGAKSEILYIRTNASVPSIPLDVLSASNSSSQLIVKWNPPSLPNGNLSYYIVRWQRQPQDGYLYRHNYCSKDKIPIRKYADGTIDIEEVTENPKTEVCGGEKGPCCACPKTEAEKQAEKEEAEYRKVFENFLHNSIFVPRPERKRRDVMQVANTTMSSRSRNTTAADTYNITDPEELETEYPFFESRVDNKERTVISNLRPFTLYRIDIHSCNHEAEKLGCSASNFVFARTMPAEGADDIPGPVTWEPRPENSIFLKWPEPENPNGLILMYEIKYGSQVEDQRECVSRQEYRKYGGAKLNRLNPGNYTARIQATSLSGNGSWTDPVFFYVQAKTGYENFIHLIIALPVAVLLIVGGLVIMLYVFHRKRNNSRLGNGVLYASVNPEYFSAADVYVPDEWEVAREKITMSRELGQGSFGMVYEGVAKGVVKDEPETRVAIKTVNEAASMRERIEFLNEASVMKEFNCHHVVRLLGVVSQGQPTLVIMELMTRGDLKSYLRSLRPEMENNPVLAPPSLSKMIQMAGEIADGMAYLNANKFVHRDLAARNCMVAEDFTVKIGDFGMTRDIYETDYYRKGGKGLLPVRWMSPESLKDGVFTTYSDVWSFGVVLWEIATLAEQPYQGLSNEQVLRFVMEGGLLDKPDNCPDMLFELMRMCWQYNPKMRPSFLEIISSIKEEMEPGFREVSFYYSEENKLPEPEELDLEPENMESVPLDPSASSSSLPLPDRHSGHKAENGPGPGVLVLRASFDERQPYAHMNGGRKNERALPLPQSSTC
T2 sequence (Q60751 31-936 limits assumed): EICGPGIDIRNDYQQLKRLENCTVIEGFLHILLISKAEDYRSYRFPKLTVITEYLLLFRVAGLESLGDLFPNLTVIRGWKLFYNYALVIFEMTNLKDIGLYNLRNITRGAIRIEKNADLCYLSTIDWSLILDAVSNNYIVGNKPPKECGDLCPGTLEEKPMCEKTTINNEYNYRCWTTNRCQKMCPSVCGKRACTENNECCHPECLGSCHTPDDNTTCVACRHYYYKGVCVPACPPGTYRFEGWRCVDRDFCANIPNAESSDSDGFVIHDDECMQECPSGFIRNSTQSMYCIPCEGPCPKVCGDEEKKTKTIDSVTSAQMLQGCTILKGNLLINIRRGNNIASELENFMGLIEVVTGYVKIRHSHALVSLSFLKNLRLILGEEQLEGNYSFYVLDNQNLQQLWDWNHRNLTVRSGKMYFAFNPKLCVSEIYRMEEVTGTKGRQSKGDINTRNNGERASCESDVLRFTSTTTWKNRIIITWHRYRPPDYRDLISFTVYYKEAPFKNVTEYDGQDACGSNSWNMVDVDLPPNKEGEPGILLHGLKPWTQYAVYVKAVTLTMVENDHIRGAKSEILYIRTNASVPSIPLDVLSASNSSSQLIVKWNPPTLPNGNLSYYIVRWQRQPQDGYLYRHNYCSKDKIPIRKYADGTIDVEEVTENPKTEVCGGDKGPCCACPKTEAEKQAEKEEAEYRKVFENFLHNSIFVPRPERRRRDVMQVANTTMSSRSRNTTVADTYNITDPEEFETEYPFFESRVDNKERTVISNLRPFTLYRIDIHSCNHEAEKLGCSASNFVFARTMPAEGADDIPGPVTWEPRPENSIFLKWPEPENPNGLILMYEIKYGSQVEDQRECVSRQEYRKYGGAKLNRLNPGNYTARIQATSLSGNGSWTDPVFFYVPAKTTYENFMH
T4 sequence (Q61526 20-641 limits assumed): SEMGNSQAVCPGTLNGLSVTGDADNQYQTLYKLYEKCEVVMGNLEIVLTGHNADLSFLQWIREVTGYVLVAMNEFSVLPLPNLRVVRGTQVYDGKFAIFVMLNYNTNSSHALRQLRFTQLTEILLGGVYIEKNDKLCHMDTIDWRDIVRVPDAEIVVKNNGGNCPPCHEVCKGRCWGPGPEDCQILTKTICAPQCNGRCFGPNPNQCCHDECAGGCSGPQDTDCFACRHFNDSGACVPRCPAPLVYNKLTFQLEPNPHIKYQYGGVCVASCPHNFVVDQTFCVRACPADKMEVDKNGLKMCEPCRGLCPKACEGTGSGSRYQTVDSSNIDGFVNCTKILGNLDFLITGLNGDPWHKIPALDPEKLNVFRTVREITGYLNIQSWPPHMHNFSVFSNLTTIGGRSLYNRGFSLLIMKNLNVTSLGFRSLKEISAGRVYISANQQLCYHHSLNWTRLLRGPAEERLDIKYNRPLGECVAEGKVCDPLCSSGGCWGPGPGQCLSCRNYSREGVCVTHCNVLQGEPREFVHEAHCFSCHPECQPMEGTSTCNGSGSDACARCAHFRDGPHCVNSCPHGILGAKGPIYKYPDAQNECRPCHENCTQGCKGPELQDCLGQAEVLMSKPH
T5 sequence (Q62799 20-641 limits assumed): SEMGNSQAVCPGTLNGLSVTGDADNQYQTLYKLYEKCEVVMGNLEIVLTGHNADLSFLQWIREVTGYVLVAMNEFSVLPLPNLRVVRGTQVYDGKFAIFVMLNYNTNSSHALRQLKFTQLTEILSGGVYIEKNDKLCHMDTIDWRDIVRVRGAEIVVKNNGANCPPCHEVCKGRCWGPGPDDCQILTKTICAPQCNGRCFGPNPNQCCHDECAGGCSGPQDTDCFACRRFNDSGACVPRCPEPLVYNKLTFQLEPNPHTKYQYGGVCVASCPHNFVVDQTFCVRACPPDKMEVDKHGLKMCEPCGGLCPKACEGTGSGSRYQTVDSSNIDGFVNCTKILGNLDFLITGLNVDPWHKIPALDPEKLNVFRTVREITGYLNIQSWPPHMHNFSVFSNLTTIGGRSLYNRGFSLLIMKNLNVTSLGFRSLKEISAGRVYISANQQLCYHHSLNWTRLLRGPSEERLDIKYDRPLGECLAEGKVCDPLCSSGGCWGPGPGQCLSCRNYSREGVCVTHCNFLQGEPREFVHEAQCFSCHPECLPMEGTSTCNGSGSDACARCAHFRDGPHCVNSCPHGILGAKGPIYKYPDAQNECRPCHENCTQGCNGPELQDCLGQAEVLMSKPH
T1 sequence (P24062 31-936 limits assumed): as the sequence (Q60751 31-936 limits assumed) above, with D271G, Y629F, M714L counted along it

B1: P4-G1-C8 (bispecific antibody, human IgG1, kappa)
heavy: not shown
light: DIQMTQSPSSLSASLGDRVTITCRASQGISSYLAWYQQKPGKAPKLLIYAKSTLQSGVPSRFSGSGSGTDFTLTISSLQPEDSATYYCQQYWTFPLTFGGGTKVEIKRTVAAPSVFIFPPSDEQLKSGTASVVCLLNNFYPREAKVQWKVDNALQSGNSQESVTEQDSKDSTYSLSSTLTLSKADYEKHKVYACEVTHQGLSSPVTKSFNRGEC
notes: IgG1-(scFv)2: anti-IGF-1R Fab, anti-ErbB3 scFv; also called P4-C8
Rat IGF-1R-His
  binding result: binds
Mouse IGF-1R-His
  binding result: binds
[1]
  % IGF1R Downregulation (A549, 24 h): 70%
  % IGF1R Downregulation (BxPC-3, 24 h): 67%
Mouse ErbB3-His
  binding result: binds
Rat ErbB3-His
  binding result: binds
[2]
  pErbB3 IC50 (BxPC-3): 5.8e-07 M (inferred)
[3]
  pIGF1R IC50 (BxPC-3): 1.3e-09 M (inferred)
[4]
  pErbB3 % Inhibition (BxPC-3): 94%
  pErbB3 IC50 (BxPC-3): 3.6e-11 M (inferred)
[5]
  pIGF1R % Inhibition (BxPC-3): 91%
  pIGF1R IC50 (BxPC-3): 1.3e-10 M (inferred)
[6]
  pAKT IC50 (BxPC-3, HRG 20 ng/ml): 1.06e-10 M
  pAKT IC50 (BxPC-3, HRG 200 ng/ml): 1.01e-10 M
  pErbB3 IC50 (BxPC-3, HRG 20 ng/ml): 6.76e-11 M
  pErbB3 IC50 (BxPC-3, HRG 200 ng/ml): 5.7e-11 M
[7]
  pAKT IC50 (BxPC-3, IGF1 40 ng/ml): 3.8e-10 M
  pAKT IC50 (BxPC-3, IGF1 400 ng/ml): 3.4e-10 M
  pIGF1R IC50 (BxPC-3, IGF1 40 ng/ml): 1.1e-10 M
  pIGF1R IC50 (BxPC-3, IGF1 400 ng/ml): 8.8e-11 M
